Experimental findings from the supplement of paper PMC5998384 are described below.

For series [1], the system named is HeLa Kyoto. Put plainly: solubility in G1/S (NP-40 vs SDS abundance) (log2 ratio); higher = more soluble. As to conditions: cell cycle stage: G1/S.
In series [2] the test system is HeLa Kyoto. The series can be described thus: solubility change mitosis vs G1/S (difference of NP-40 vs SDS log2 ratios) (log2 ratio difference); higher = more soluble in mitosis.
The subject of series [3] is HeLa Kyoto. Put plainly: thermal stability score vs G1/S (z-score of summed log2 fold changes over temperatures); higher = more thermally stable than in G1/S.
The test system of series [4] is HeLa Kyoto. The series can be described thus: melting temperature (median over replicates), in situ; higher = more thermally stable.
Setting [5] is: cell cycle stage: early G1 (4.5 h after nocodazole release).
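Wherever melting temperature (median over replicates), in situ is given: HeLa Kyoto cells synchronized by double thymidine or nocodazole block, proteins quantified by TMT10plex mass spectrometry, three independent biological replicates.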
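Wherever solubility change mitosis vs G1/S (difference of NP-40 vs SDS log2 ratios) is given: synchronized HeLa Kyoto cells (double thymidine block for G1/S, nocodazole release for mitosis), protein amounts in NP-40 versus SDS lysates quantified by mass spectrometry, three biological replicates.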
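Wherever solubility in G1/S (NP-40 vs SDS abundance) is given: HeLa Kyoto cells arrested at G1/S by double thymidine block, proteins quantified by TMT10plex mass spectrometry in mild NP-40 versus SDS extracts, three biological replicates.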
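Wherever thermal stability score vs G1/S (z-score of summed log2 fold changes over temperatures) is given: synchronized HeLa Kyoto cells, proteins quantified by TMT10plex mass spectrometry, three biological replicates, mitosis taken 0.5 h after nocodazole release, G1/S directly after double thymidine block.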

In the case of “MDLSGVKKKSLLGVKENNKKSSTRAPSPTKRKDRSDEKSKDRSKDKGATKESSEKDRGRDKTRKRRSASSGSSSTRSRSSSTSSSGSSTSTGSSSGSSSSSASSRSGSSSTSRSSSSSSSSGSPSPSRRRHDNRRRSRSKSKPPKRDEKERKRRSPSPKPTKVHIGRLTRNVTKDHIMEIFSTYGKIKMIDMPVERMHPHLSKGYAYVEFENPDEAEKALKHMDGGQIDGQEITATAVLAPWPRPPPRRFSPPRRMLPPPPMWRRSPPRMRRRSRSPRRRSPVRRRSRSPGRRRHRSRSSSNSSR [RNPS1]”, in series [1], the “solubility in G1/S (log2)” value is -0.501. The “solubility change mitosis (log2)” value in series [2] was 0.52. Moreover, the thermal stability score came out at 0.608 in series [3] (setting [5]) and 1.88 in series [3] (cell cycle stage: mitosis). In addition, the results for the melting temperature in series [4] (cell cycle stage: G1/S) and in series [4] (cell cycle stage: mitosis) were 48.9 °C and 50 °C, respectively.
For “MDNLSDTLKKLKITAVDKTEDSLEGCLDCLLQALAQNNTETSEKIQASGILQLFASLLTPQSSCKAKVANIIAEVAKNEFMRIPCVDAGLISPLVQLLNSKDQEVLLQTGRALGNICYDSHEGRSAVDQAGGAQIVIDHLRSLCSITDPANEKLLTVFCGMLMNYSNENDSLQAQLINMGVIPTLVKLLGIHCQNAALTEMCLVAFGNLAELESSKEQFASTNIAEELVKLFKKQIEHDKREMIFEVLAPLAENDAIKLQLVEAGLVECLLEIVQQKVDSDKEDDITELKTGSDLMVLLLLGDESMQKLFEGGKGSVFQRVLSWIPSNNHQLQLAGALAIANFARNDANCIHMVDNGIVEKLMDLLDRHVEDGNVTVQHAALSALRNLAIPVINKAKMLSAGVTEAVLKFLKSEMPPVQFKLLGTLRMLIDAQAEAAEQLGKNVKLVERLVEWCEAKDHAGVMGESNRLLSALIRHSKSKDVIKTIVQSGGIKHLVTMATSEHVIMQNEALVALALIAALELGTAEKDLESAKLVQILHRLLADERSAPEIKYNSMVLICALMGSECLHKEVQDLAFLDVVSKLRSHENKSVAQQASLTEQRLTVES [RAP1GDS1]”, the “solubility in G1/S (log2)” value in series [1] worked out at 0.111. Moreover, the “solubility change mitosis (log2)” value in series [2] was -0.0374. The thermal stability score came out at 1.29 in series [3] (setting [5]) and 1.87 in series [3] (cell cycle stage: mitosis). Besides, the melting temperature in series [4] (cell cycle stage: G1/S) worked out at 50.2 °C; in series [4] (cell cycle stage: mitosis) it was 49.8 °C.
Regarding “MDNYADLSDTELTTLLRRYNIPHGPVVGSTRRLYEKKIFEYETQRRRLSPPSSSAASSYSFSDLNSTRGDADMYDLPKKEDALLYQSKGYNDDYYEESYFTTRTYGEPESAGPSRAVRQSVTSFPDADAFHHQVHDDDLLSSSEEECKDRERPMYGRDSAYQSITHYRPVSASRSSLDLSYYPTSSSTSFMSSSSSSSSWLTRRAIRPENRAPGAGLGQDRQVPLWGQLLLFLVFVIVLFFIYHFMQAEEGNPF [EMD]”, the “solubility in G1/S (log2)” value in series [1] was -0.273. Further, the “solubility change mitosis (log2)” value in series [2] was 0.383. The values for the thermal stability score in series [3] (setting [5]) and in series [3] (cell cycle stage: mitosis) were -0.609 and -0.468, respectively. Besides, the melting temperature was 52.4 °C in series [4] (cell cycle stage: G1/S) and 51.7 °C in series [4] (cell cycle stage: mitosis).
As to “MDPLSELQDDLTLDDTSEALNQLKLASIDEKNWPSDEMPDFPKSDDSKSSSPELVTHLKWDDPYYDIARHQIVEVAGDDKYGRKIIVFSACRMPPSHQLDHSKLLGYLKHTLDQYVESDYTLLYLHHGLTSDNKPSLSWLRDAYREFDRKYKKNIKALYIVHPTMFIKTLLILFKPLISFKFGQKIFYVNYLSELSEHVKLEQLGIPRQVLKYDDFLKSTQKSPATAPKPMPPRPPLPNQQFGVSLQHLQEKNPEQEPIPIVLRETVAYLQAHALTTEGIFRRSANTQVVREVQQKYNMGLPVDFDQYNELHLPAVILKTFLRELPEPLLTFDLYPHVVGFLNIDESQRVPATLQVLQTLPEENYQVLRFLTAFLVQISAHSDQNKMTNTNLAVVFGPNLLWAKDAAITLKAINPINTFTKFLLDHQGELFPSPDPSGL [ARHGAP1]”, in series [1], the “solubility in G1/S (log2)” value was determined as 0.473. In addition, the “solubility change mitosis (log2)” value in series [2] is -0.0609. Besides, the thermal stability score amounted to 0.517 in series [3] (setting [5]) and 0.431 in series [3] (cell cycle stage: mitosis). The melting temperature in series [4] (cell cycle stage: G1/S) and in series [4] (cell cycle stage: mitosis) was 51.4 °C each time.
